The values below come from the supplement of paper PMC5998384.

In data set [1] the test system is HeLa Kyoto. The experiment in a line: solubility change mitosis vs G1/S (difference of NP-40 vs SDS log2 ratios) (log2 ratio difference); higher = more soluble in mitosis.
For data set [2], the system named is HeLa Kyoto. The experiment in a line: solubility in G1/S (NP-40 vs SDS abundance) (log2 ratio); higher = more soluble. As to conditions: cell cycle stage: G1/S.
The subject of data set [3] is HeLa Kyoto. The experiment in a line: melting temperature (median over replicates), in situ; higher = more thermally stable.
In data set [4] the test system is HeLa Kyoto. The experiment in a line: thermal stability score vs G1/S (z-score of summed log2 fold changes over temperatures); higher = more thermally stable than in G1/S.
[5] abbreviates: cell cycle stage: early G1 (4.5 h after nocodazole release).
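Wherever melting temperature (median over replicates), in situ is given: HeLa Kyoto cells synchronized by double thymidine or nocodazole block, proteins quantified by TMT10plex mass spectrometry, three independent biological replicates.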
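Wherever solubility change mitosis vs G1/S (difference of NP-40 vs SDS log2 ratios) is given: synchronized HeLa Kyoto cells (double thymidine block for G1/S, nocodazole release for mitosis), protein amounts in NP-40 versus SDS lysates quantified by mass spectrometry, three biological replicates.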
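Wherever solubility in G1/S (NP-40 vs SDS abundance) is given: HeLa Kyoto cells arrested at G1/S by double thymidine block, proteins quantified by TMT10plex mass spectrometry in mild NP-40 versus SDS extracts, three biological replicates.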
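Wherever thermal stability score vs G1/S (z-score of summed log2 fold changes over temperatures) is given: synchronized HeLa Kyoto cells, proteins quantified by TMT10plex mass spectrometry, three biological replicates, mitosis taken 0.5 h after nocodazole release, G1/S directly after double thymidine block.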

Take “MADPEVCCFITKILCAHGGRMALDALLQEIALSEPQLCEVLQVAGPDRFVVLETGGEAGITRSVVATTRARVCRRKYCQRPCDNLHLCKLNLLGRCNYSQSERNLCKYSHEVLSEENFKVLKNHELSGLNKEELAVLLLQSDPFFMPEICKSYKGEGRQQICNQQPPCSRLHICDHFTRGNCRFPNCLRSHNLMDRKVLAIMREHGLNPDVVQNIQDICNSKHMQKNPPGPRAPSSHRRNMAYRARSKSRDRFFQGSQEFLASASASAERSCTPSPDQISHRASLEDAPVDDLTRKFTYLGSQDRARPPSGSSKATDLGGTSQAGTSQRFLENGSQEDLLHGNPGSTYLASNSTSAPNWKSLTSWTNDQGARRKTVFSPTLPAARSSLGSLQTPEAVTTRKGTGLLSSDYRIINGKSGTQDIQPGPLFNNNADGVATDITSTRSLNYKSTSSGHREISSPRIQDAGPASRDVQATGRIADDADPRVALVNDSLSDVTSTTSSRVDDHDSEEICLDHLCKGCPLNGSCSKVHFHLPYRWQMLIGKTWTDFEHMETIEKGYCNPGIHLCSVGSYTINFRVMSCDSFPIRRLSTPSSVTKPANSVFTTKWIWYWKNESGTWIQYGEEKDKRKNSNVDSSYLESLYQSCPRGVVPFQAGSRNYELSFQGMIQTNIASKTQKDVIRRPTFVPQWYVQQMKRGPDHQPAKTSSVSLTATFRPQEDFCFLSSKKYKLSEIHHLHPEYVRVSEHFKASMKNFKIEKIKKIENSELLDKFTWKKSQMKEEGKLLFYATSRAYVESICSNNFDSFLHETHENKYGKGIYFAKDAIYSHKNCPYDAKNVVMFVAQVLVGKFTEGNITYTSPPPQFDSCVDTRSNPSVFVIFQKDQVYPQYVIEYTEDKACVIS [ZC3HAV1]”: the “solubility change mitosis (log2)” value in data set [1] was found to be 0.0381. The “solubility in G1/S (log2)” value in data set [2] was -0.202. Besides, the melting temperature was found to be 48.1 °C in data set [3] (cell cycle stage: G1/S) and 48.8 °C in data set [3] (cell cycle stage: mitosis). Also, the thermal stability score in data set [4] (setting [5]) was found to be 1.07; in data set [4] (cell cycle stage: mitosis) it was 1.97.
Turning to “MADPRVRQIKIKTGVVKRLVKEKVMYEKEAKQQEEKIEKMRAEDGENYDIKKQAEILQESRMMIPDCQRRLEAAYLDLQRILENEKDLEEAEEYKEARLVLDSVKLEA [TBCA]”, the “solubility change mitosis (log2)” value in data set [1] is 0.298. For the same sequence, the “solubility in G1/S (log2)” value in data set [2] turned out to be 0.241. Also, the melting temperature stood at 55.4 °C in data set [3] (cell cycle stage: G1/S) and 53 °C in data set [3] (cell cycle stage: mitosis). Besides, the thermal stability score is -7.45 in data set [4] (setting [5]) and -6.72 in data set [4] (cell cycle stage: mitosis).
As for “MADPWQECMDYAVTLARQAGEVVCEAIKNEMNVMLKSSPVDLVTATDQKVEKMLISSIKEKYPSHSFIGEESVAAGEKSILTDNPTWIIDPIDGTTNFVHRFPFVAVSIGFAVNKKIEFGVVYSCVEGKMYTARKGKGAFCNGQKLQVSQQEDITKSLLVTELGSSRTPETVRMVLSNMEKLFCIPVHGIRSVGTAAVNMCLVATGGADAYYEMGIHCWDVAGAGIIVTEAGGVLMDVTGGPFDLMSRRVIAANNRILAERIAKEIQVIPLQRDDED [IMPA1]”, the “solubility change mitosis (log2)” value in data set [1] is -0.19. Moreover, the “solubility in G1/S (log2)” value in data set [2] is 0.0966. The melting temperature in data set [3] (cell cycle stage: G1/S) was determined as 59.9 °C; in data set [3] (cell cycle stage: mitosis), 61.1 °C. The thermal stability score was -1.12 in data set [4] (setting [5]) and -2.39 in data set [4] (cell cycle stage: mitosis).
Turning to “MADSASESDTDGAGGNSSSSAAMQSSCSSTSGGGGGGGGGGGGGKSGGIVISPFRLEELTNRLASLQQENKVLKIELETYKLKCKALQEENRDLRKASVTIQARAEQEEEFISNTLFKKIQALQKEKETLAVNYEKEEEFLTNELSRKLMQLQHEKAELEQHLEQEQEFQVNKLMKKIKKLENDTISKQLTLEQLRREKIDLENTLEQEQEALVNRLWKRMDKLEAEKRILQEKLDQPVSAPPSPRDISMEIDSPENMMRHIRFLKNEVERLKKQLRAAQLQHSEKMAQYLEEERHMREENLRLQRKLQREMERREALCRQLSESESSLEMDDERYFNEMSAQGLRPRTVSSPIPYTPSPSSSRPISPGLSYASHTVGFTPPTSLTRAGMSYYNSPGLHVQHMGTSHGITRPSPRRSNSPDKFKRPTPPPSPNTQTPVQPPPPPPPPPMQPTVPSAATSQPTPSQHSAHPSSQP [CCDC6]”, in data set [1], the “solubility change mitosis (log2)” value is -0.174. In addition, the “solubility in G1/S (log2)” value in data set [2] stood at 0.826. For the same sequence, the figures for the melting temperature in data set [3] (cell cycle stage: G1/S) and in data set [3] (cell cycle stage: mitosis) were 53.5 °C and 53.6 °C, respectively. The thermal stability score in data set [4] (setting [5]) was -2.05; in data set [4] (cell cycle stage: mitosis), 0.137.
